Laboratory results as given in the RNAGym collection of RNA variant scans (doi:10.1073/pnas.2313332121).
This sample holds only a part of the variants without activity.

B1: TPR 5TU (parent)
chain: GGAUCUUCUCGAUCUAACAAAAAAGACAAAUCUGCCACAAAGCUUGAGAGCAUCUUCGGAUGCAGAGGCGGCAGCCUUCGGUGGCGCGAUAGCGCCAACGUUCUCAACUAUGACACGCAAAACGCGUGCUCCGUUGAAUGGAGUUUAUCAUG

Variants of: B1
Assay: polymerase ribozyme fitness, log enrichment relative to wild type (log ratio); higher = more active; in vitro selection for triplet polymerase activity
Outline: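 Mutant libraries of both subunits of a heterodimeric triplet polymerase ribozyme were PCR-built, transcribed, and selected once in triplicate, with frozen incubation at −7 °C and capture of gel-excised extended constructs on streptavidin beads before RT-PCR. Illumina sequencing of input and output libraries was filtered to genotypes with ≥10 input reads and ≥1 read per output. Fitness is the logarithm of genotype enrichment over wild-type enrichment, using inverse-variance-weighted replicate averages. The logarithm is base 2.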

Variant | polymerase ribozyme fitness (log ratio)
GGAUCUUCUCGACCUAACAAAAAAGACAAAUCUGCCAGAAAGCUUGAGAGCAACUUCGGAUGCAGAGGCGGCAGCCUUCGGGGGCGCGAUAACGCCAACGUUCUGAACUAUGAUACGCAAAACGCGUCCUCCGUUGAAUGGAGUUUAUCACG [U13C C38G U53A U82G G92A C105G C114U G128C U151C] | ≤ -4.2
GGAUCUUCUCGACCUAACAAAAAAGACAAAUCUGCCACAAAGCUUGAGAGCAUCUUCGGAUGCAGAGGCGGCAGCCUUCGGUGGCGCGAUAGAGCAAACGUUCUCAACUAUGACACGCAAAACGCGUGCUCCGUUGAAUGGAGUUUAUCAUG [U13C C93A C96A] | -3.63
GGAUCUUCUCGACCUAACAAAAAAGACAAAUCUGCCACAAAGCUUGAGAGGAUGUUCGGAUGCAGAGGCGGCAGUCUUCGGUUGCGCGAUAGCGCCAACGUUCUCAACUAUGACACGCAAAACGCGUGCUCCGUUGAAUGGAGUUUAUCAUG [U13C C51G C54G C75U G83U] | ≤ -4.2
GGAUCUUCUCGACCUAACAAAAAAGACAAAUCUGGGACAAAGCUUGAGAGCAUCGUCGGAUGCAGAGGCGGCAGCCUUCGGUGGCUCGAUAGCGCCAACGUUCUCAACUAUGACACGCAAAACGCGUGCUCCGUUGAAUGGAGUUUAUCAUG [U13C C35G C36G U55G G86U] | -4.16
GGAUCUUCUCGACCUAACAAAAAAGACAAAUCUGCCACAAAGCUUGAGAGCAUCUUCUGAUGCAGAGGCGGCAGCCUUCGGUGGCGCGAUAGCUUCAACGUUCUCAACUAUGACACGCAAAACGCGUGCUCCGUUGAAUGGGGGUUAUCAUG [U13C G58U G94U C95U A142G U144G] | -4.05
GGAUCUUCUCGACCUAACAAAAAAGACAAAUCUGCCACAAAGCUUGAGAGCAUCUUCGGAUGCAGAGGCGGCAGCCUUCGGUGGCGCGAUAGAGCCAACGUUCUCAACUAUGACACGCAAAACGCGUGCUCCGUUGAAUGGAGUUUAUCAUG [U13C C93A] | -2.64
GGAUCUUCUCGACCUAACAAAAAAGACAAAUCUGCCAUAAAGCUUGAGAGCAUCUUCGGAUGCAGAGGCGGCAGCCUUCGGUGGCACGAUAGCGCCAACGUUCUCAACUAUGACACGCAAAACCCGUGCUCCGUUGAAUGGAGUUUAUCAUG [U13C C38U G86A G124C] | -1.98
GGAUCUUCUCGACCUAACAAAAAAGACAAAUCUGCCACAAAGCUUGAGAGCAUCUUCCGAUGCAGAAGCGGCAGCCUUCGGUGGCGCGAUAGCCCCAACGUUCUCAACUAUGACACGCAAAACGCGUGCUCCGUUGAAUGGAGUUUAUCAUG [U13C G58C G67A G94C] | ≤ -4.2
GGAUCUUCUCGACCUAACAAAAAAGACAAAUCUGCCACAAAGCUUGAGAGCAUCUUCGGAUGCAGAGGCGGCAGCCUUCGGUGGCGCGAUAGCGCCAACGUUCUCAACUAUGACACGCAAAACGAGUGCUCCGUUCAAUGGAGUCCAUCAUG [U13C C125A G136C U145C U146C] | -3.59
GGAUCUUCUCGACCUAACAAAAAAGACAAAUCUGCCACAAAGCUUGAGAGCAUCUUCAGAUGCAGAGGCGGCAGCCUUCGGUGGCGCUAAAGCGCCAACGUGCUCAACUAUGACACGCAAAACGCGUGCUCCGUUGAAUGGAGUUUAUCAUG [U13C G58A G88U U90A U102G] | ≤ -4.2
GGAUCUUCUCGACCUAACAAAAAAGACAAAUCUGCCACAAAGCUUGAGAGCAUCUUCGGAUGCAGAGGAGGCAGCCUUCGGUGGCGGGAUAGCGCCUACGUUCUCAACUAUGACACGCAAAACGCGUGCUCCGUUGAAUGGAGUUUUUCAUG [U13C C69A C87G A97U A147U] | ≤ -4.2
GGAUCUUCUCGACCUAACAAAAAAGACAAAUCUGACACAAAGCUUGAGAGCAUCUUCGGAUGCAGAGGCGGCAGCCUUCGGUGGCGCGAUUGCGACAACGUUCCCAACUAUGACACGCAAAACGCGUGCUGCGUUGAAUGGAGUUUAUCAUG [U13C C35A A91U C95A U104C C131G] | ≤ -4.2
GGAUCUUCUCGACCUAACAAAAAAGACAAAUCUGCCACAAAGCUUGAGAGCAUCUUCGCAGGCAGAGGCGGCAGCCUUUGGUGACGCGAUAGCGCCAACGUUCUCAACUAUGACACGCAAAACGCGUGCUCAGUUGAAUGGAGUUUAUCAUG [U13C G59C U61G C79U G84A C132A] | -4.17
GGAUCUUCUCGACCUAACAAAAAAGACAAAUCUGCCACAAAGCUUGAGAGCAUCUUCGGAUGCAGAGGCGGCAGCCUUCGGUGGCGAGAUAGCGCCAACGUUCUCAACUAUGACACGCAAAACGCGUGCUCCGUUGAAUGGAGUUUAUCAUG [U13C C87A] | ≤ -4.2
GGAUCUUCUCGACCUAACAAAAAAGACAAAUCUGCCACAAAGCUUGAGAGCAUCUUCGGAUGCAGAGGCGGCAGCCUUCGGUGGCGCGAUAGGGCCAAAGUUCUCAACUAUGACACGCAAAACGCGCGCUCCGUUGAAUGGAGUUUAUCAUG [U13C C93G C99A U127C] | ≤ -4.2
GGAUCUUCUCGACCUAACAAAAAAGACAAAUCUGCCACAAAGCUUGAGAGAAUCUUCGGAUGCAGAGGCGGCAGCCUUCGGUCGCGCGGUAGCGCCAACGUUCUCAACUAUGACACGCAAAACGUGUGCUCCGUUGAAUGGAGUUUAUCAUG [U13C C51A G83C A89G C125U] | ≤ -4.2
GGAUCUUCUCGACCUAACAAAAAAGACAAAUCUGCCACAAAGCUUGAGAGCAUCUUCGGAUGCAGAGGCGGCAGCCUUCGGUCGCGCGAUAGCGCUAACGUUCUCAACUAUGAUACGCAAAACGCGUGCUCCGUUGAAUGGAGUUUAUCAUG [U13C G83C C96U C114U] | -4.13
GGAUCUUCUCGACCUAACAAAAAAGACAAAUCUGCCACAAAGCUUGAGAGCAUCUUCGGAUGCAGAGGCGGCAGCCUUCGGUGGCGCGAUAGCACCAACGUUCUCAACUAUGACACGCAAAACGCGUGCUCCGUUGAAUGGAGUUUAUCAUG [U13C G94A] | -0.431
GGAUCUUCUCGACCUAACAAAAAAGACAAAUCUGCCACAAAGCUUGAGAGCAUCUUCGGAUGCAGAGGCGGCAGCCUUCGGUGGCGCGAUAGUGCCAACGUUCUCAACUAUGACACGCAAAACGCGUGCUCCGAUGAAUGGAGUUUAUCAUG [U13C C93U U134A] | -3.08
